Data from US20210032353A1 (NATIONAL HEALTH RESEARCH INSTITUTES, published 2021).

T1: VEGFR3 IgD5 (individual recombinant immunoglobin-like domain 5 of VEGFR3) (UniProt P35916 422-552, limits assumed)
T1 construct: domain: IgD5
T1 sequence (looked up): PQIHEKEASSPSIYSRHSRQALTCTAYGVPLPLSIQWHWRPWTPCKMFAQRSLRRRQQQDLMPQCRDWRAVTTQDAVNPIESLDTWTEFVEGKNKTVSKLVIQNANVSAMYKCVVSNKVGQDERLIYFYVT

T2: R3-IgD4 (human, UniProt P35916)
T2 construct: recombinant fragment; also called immunoglobin-like domain 4 of VEGFR3
T2 sequence (receptor fragment, looked up): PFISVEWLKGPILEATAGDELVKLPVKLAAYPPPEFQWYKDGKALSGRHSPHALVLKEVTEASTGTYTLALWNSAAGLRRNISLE

T3: R3-IgD7 (human, UniProt P35916)
T3 construct: recombinant fragment; also called immunoglobin-like domain 7 of VEGFR3
T3 sequence (receptor fragment, looked up): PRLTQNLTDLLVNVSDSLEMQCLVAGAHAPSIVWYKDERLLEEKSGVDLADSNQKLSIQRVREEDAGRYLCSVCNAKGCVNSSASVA

T4: VEGFR3 (Flt-4)-IgD 4-7 (UniProt P35916 331-764, limits assumed)
T4 construct: domain: IgD4-7; The methods describe no D4-7 construct of VEGFR3; tag and expression host are unknown; also called recombinant IgD4-7 of VEGFR3
T4 sequence (looked up): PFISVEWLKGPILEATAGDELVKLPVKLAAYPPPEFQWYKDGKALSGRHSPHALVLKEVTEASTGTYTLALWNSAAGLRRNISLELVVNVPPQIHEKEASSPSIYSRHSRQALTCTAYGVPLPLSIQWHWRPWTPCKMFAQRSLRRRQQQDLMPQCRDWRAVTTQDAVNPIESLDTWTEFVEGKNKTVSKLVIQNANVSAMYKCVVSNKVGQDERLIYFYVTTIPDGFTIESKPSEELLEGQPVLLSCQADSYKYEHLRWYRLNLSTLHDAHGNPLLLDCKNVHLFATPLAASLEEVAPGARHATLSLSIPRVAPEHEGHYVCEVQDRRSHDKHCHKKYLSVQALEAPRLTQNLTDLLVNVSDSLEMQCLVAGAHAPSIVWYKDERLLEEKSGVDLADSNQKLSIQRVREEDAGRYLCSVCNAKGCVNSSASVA

B1: R2C9-11 monoclonal antibody (antibody, V domains shown)
VH: QVQLQQPGAELVKPGASVKLSCKASGYTFTSYWMHWVKQRPGQGLEWIGEINPSNGRTNYNEKFKSKATLTVDKSSSTAYMQLSSLTSEDSAVYYCANLYFDVWGAGTTVTVSS
VL: DIVMTQSPSSLSVSAGEKVTMSCKSSQNLLNSGNQKYYLAWYQQKPGQPPKLLIYGASIRESGVPDRFIGSGSGTDFTLTISSVQAEDLAVYFCQSDHSYPYTFGGGTKLEIK
notes: Mouse monoclonal antibody purified from hybridoma supernatant; An IgG2a isotype antibody served as its control; also called R2C9-11 mAb
B2: R2C7-1 monoclonal antibody (antibody, V domains shown)
VH: EVQLQQSGPELVKPGASVKISCKASGYSFTDYFINWVIQRHGKSLEWVGRINPYNGGSFYNQKFKDKATLTVDKSSNIAHMELRSLASEDSAIYYCARSGGNGYDYWGQGTTLTVSS
VL: DIVMTQAAPSVPVIPGESVSISCRSSKSLLHSNGNTYLYWFLQRPGQSPQLLIYRMSNLASGVPDRFSGSGSGTAFTLRISRVEAEDVGVYYCMQHLEYPYTFGGGTKVEIK
notes: Mouse monoclonal antibody purified from hybridoma supernatant; An IgG2a isotype antibody served as its control; also called R2C7-1 mAb

Assays:
VEGFR2 (KDR)-IgD 4-7 = molecular target: T5, VEGFR2 (KDR)-IgD 4-7 (human, UniProt P35968 328-753); test: Biacore; antibody as flow analyte, KDR-IgD4-7 as ligand
T5 construct: domain: IgD4-7; Expressed in E. coli; also called recombinant IgD4-7 of VEGFR2; VEGFR2-ED Ig D4-7
T5 sequence (P35968 328-753 limits assumed): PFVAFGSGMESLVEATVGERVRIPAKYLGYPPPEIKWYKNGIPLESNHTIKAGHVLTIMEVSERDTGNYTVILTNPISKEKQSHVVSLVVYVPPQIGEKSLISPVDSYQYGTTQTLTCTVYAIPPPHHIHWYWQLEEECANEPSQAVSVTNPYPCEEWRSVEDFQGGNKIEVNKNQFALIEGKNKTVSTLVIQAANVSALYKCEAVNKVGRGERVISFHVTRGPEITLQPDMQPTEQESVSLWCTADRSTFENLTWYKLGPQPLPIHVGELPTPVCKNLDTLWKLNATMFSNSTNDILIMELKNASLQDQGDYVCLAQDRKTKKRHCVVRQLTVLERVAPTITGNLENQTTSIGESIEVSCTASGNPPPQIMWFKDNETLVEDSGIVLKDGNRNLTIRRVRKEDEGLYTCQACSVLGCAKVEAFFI

[1] = molecular target: T1, VEGFR3 IgD5 (individual recombinant …); test: cell-based competitive ELISA: R2C9-11 absorbed with the soluble domain, then bound to 293T/VEGFR3 cells, OD405
Method: (§1) Panel A, Cell-based competitive. ELISA. HEK293T cells expressing VEGFR3 (293T/VEGFR3) were coated in 96-well plates. The optimal concentrations of R2C7-1 and R2C9-11 mAbs were determined as described previously (data now shown). The optimal concentrations of R2C7-1 and R2C9-11 mAbs were absorbed with the designed doses of the individual immunoglobin-like domains of VEGFR3 (R3-IgDs) antigens, as indicated. The bound antibodies were immune-probed with secondary antibody conjugated with HRP, visualized by addition of ABTS, and measured at OD₄₀₅ using a microplate reader (SpectraMax). Data are represented as means±S.D. of percentage of isotype control (CTL) in triplicate. The epitope locations of R2C7-1 and R2C9-11 on the VEGFR3 antigen are indicated by the black lines spanning IgD6 in the schematics. Panel B, Native gel electrophoresis. The whole extracellular domain (R3-IgD1-7), domain 3-4 (R3-IgD3-4) and domain 6-7 (R3-IgD6-7) were constructed, expressed in the E. coli, and purified using the anti-Myc affinity purification system. The purity and molecular weight of each recombinant protein were visualized with a standard Western blot using anti-Myc antibody as probe (left). The binding of R2C7-1 and R2C9-11 to the VEGFR3 truncated antigens was evaluated with native gel electrophoresis to confirm the epitopes of R2C7-1 and R2C9-11 mAbs (middle and right, respectively).
(§2) The same methodology was adopted to define the epitopes of the antibodies on VEGFR3. To determine the optimal concentrations of the antibodies for VEGFR3, HEK293T/VEGFR3 transfectants were used as targets (data not shown). Subsequently, the antibodies with optimal concentrations were absorbed with individual recombinant extracellular domains of VEGFR3 (R3-IgDs) for competing the binding epitopes. Similarly, their major epitopes were both located in IgD6, but not in IgD7, of VEGFR3. To conform this finding, Western blotting analysis of different recombinant IgD proteins was carried out using native gel electrophoresis.

R3-IgD4 = molecular target: T2, R3-IgD4; test: as above
Method: as §1, §2

R3-IgD7 = molecular target: T3, R3-IgD7; test: as above
Method: as §1, §2

VEGFR3 (Flt-4)-IgD 4-7 = molecular target: T4, VEGFR3 (Flt-4)-IgD 4-7; test: Biacore; antibody as flow analyte, Flt 4-IgD4-7 as ligand

Row | Binder | koff (VEGFR2 (KDR)-IgD 4-7) [s⁻¹] | binding result [1] | binding result (R3-IgD4) | binding result (R3-IgD7) | koff (VEGFR3 (Flt-4)-IgD 4-7) [s⁻¹] | kon (VEGFR3 (Flt-4)-IgD 4-7) [M⁻¹ s⁻¹]
1 | B1 | 1.3e-05 | no binding (tested: 10 (unit not printed on the sheet)) | no binding (tested: 10 (unit not printed on the sheet)) | no binding (tested: 10 (unit not printed on the sheet)) | 0.0034 | 3.2e+06
2 | B2 | 0.0024 |  |  |  | 0.0049 | 1.5e+06
